Target: T1, F-box protein 28 (FBXO28)
T1 chain: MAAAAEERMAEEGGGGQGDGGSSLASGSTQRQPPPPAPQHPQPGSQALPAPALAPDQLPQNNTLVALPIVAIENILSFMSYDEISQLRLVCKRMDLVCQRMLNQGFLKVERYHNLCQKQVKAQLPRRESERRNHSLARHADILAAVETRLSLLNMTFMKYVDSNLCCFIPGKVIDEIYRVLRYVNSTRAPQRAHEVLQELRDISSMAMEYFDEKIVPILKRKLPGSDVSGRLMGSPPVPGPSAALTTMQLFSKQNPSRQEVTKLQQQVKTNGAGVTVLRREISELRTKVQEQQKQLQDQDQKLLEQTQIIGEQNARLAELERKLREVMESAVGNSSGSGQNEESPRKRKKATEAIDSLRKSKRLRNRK

B1: 6-phosphofructo-2-kinase/fructose-2,6-biphosphatase 4 (PFKFB4) (protein)
chain: MASPRELTQNPLKKIWMPYSNGRPALHACQRGVCMTNCPTLIVMVGLPARGKTYISKKLTRYLNWIGVPTREFNVGQYRRDVVKTYKSFEFFLPDNEEGLKIRKQCALAALRDVRRFLSEEGGHVAVFDATNTTRERRATIFNFGEQNGYKTFFVESICVDPEVIAANIVQVKLGSPDYVNRDSDEATEDFMRRIECYENSYESLDEDLDRDLSYIKIMDVGQSYVVNRVADHIQSRIVYYLMNIHVTPRSIYLCRHGESELNLKGRIGGDPGLSPRGREFAKSLAQFISDQNIKDLKVWTSQMKRTIQTAEALGVPYEQWKVLNEIDAGVCEEMTYEEIQDNYPLEFALRDQDKYRYRYPKGESYEDLVQRLEPVIMELERQENVLVICHQAVMRCLLAYFLDKAAEQLPYLKCPLHTVLKLTPVAYGCKVESIFLNVAAVNTHRDRPQNVDISRPPEEALVTVPAHQ
  HIF1a protein level (Western blot) after knockdown in GSCs: silencing of both FBXO28 and PFKFB4 in the GSCs rescued the level of HIF1a
  ubiquitylation of HIF1a (ubiquitin immunoblot on immunoprecipitated HIF1a upon MG132 treatment): the ubiquitylation of HIF1a is decreased in cells overexpressing PFKFB4

— patent publication US20210033615
